The record followed here is PMC3102714, “OsSpo11-4, a Rice Homologue of the Archaeal TopVIA Protein, Mediates Double-Strand DNA Cleavage and Interacts with OsTopVIB” (PLoS ONE, 2011).

The assay concerns the target T1, GST-OsTopVIB fusion protein (Oryza sativa L. ssp. japonica, UniProt Q6H442 1-696).
T1 construct: OsTopVIB, Oryza sativa L. ssp. japonica; ORF amplified with primers P17 and P18, cloned BamHI/BglII into pESP-2; fusion about 103 kD; also called OsTopVIB-GST fusion; GST-TopVIB
T1 sequence (looked up): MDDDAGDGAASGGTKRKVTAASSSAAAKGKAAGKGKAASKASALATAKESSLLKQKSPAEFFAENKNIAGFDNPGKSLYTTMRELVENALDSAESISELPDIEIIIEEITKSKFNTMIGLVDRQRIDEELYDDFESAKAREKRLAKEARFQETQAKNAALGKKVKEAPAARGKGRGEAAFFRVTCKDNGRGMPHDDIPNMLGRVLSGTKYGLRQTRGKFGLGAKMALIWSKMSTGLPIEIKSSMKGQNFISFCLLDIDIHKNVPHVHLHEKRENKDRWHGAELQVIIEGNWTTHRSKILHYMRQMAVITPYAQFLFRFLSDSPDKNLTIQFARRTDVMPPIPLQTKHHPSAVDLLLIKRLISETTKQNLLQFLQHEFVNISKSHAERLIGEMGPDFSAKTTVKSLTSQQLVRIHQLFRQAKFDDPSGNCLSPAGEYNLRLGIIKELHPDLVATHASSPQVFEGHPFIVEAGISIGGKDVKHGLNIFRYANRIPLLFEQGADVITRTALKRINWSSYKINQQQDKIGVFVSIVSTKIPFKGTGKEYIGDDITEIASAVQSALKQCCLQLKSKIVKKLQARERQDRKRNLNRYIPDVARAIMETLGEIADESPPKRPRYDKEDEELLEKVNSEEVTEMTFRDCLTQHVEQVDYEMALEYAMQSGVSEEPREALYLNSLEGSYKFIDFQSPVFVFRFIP
The experiment in a line: pull-down; GST-OsTopVIB preabsorbed to Glutathione Sepharose resin; purified pET-OsSpo11-4 precleared with GST resin; 0.5% NP-40 lysis buffer (20 mM Tris-HCl pH 8.0, 200 mM NaCl, 1 mM EDTA), 4°C, 6 h; western blot with antibody against pET-OsSpo11-4. The conditions noted are these: both partners purified.

B1: pET-OsSpo11-4 fusion protein (natural protein, Oryza sativa L. ssp. japonica, UniProt Q2QM00 1-487, looked up)
chain: MDDSTDDDSYHPRKHYAYDRQVSSSRWRTSREYIRGPGPETHTTESAQDGQDPPAGVYSYGYFSGSGNDPQVQGHFVPEIQKYNPYVIFKGEQLPVPIWELPEEKVQDFHDRYFIAKDKSRVEARKTLNRLLEGNINTIERGHGYKFNIPKYTDNMEFNEEVKVSLAKAGKTISRSFCNANQREVASRTGYTIDLIERTLGAGLNISKRTVLYTNKDLFGDQSKSDQAINDICALTNIRRGSLGIIAAEKGIVVGNIFLELTNGKSISCSIGVQIPHRLDQIKDVCVEIGSRNIEYILVVEKHTMLNYLLEMDYHTNNNCIILTGCGMPTLQTRDFLRFLKQRTGLPVFGLCDPDPEGISILATYARGSCNSAYDNFNISVPSICWVGLSSSDMIKLNLSETNYSRLSREDKTMLKNLWQDDLSDVWKRRIEEMISFDKKASFEAIHSLGFDYFATNLLPDMINKVREGYVQVQEKKEPQDTEASED
notes: OsSpo11-4, Oryza sativa L. ssp. japonica, predicted protein of 487 amino acids; full-length ORF amplified with primers P5 and P6, cloned into EcoRI/XhoI of pET-32a(+); fusion about 72 kD; Forward primer P5 lacks the ATG GAT that primer P15 has, so the insert may lack the first two codons; also called pET-Spo11-4
For B1, the binding result was “binds”.
